# In the supplement of paper PMC12338614:
# ± gives the uncertainty stated by the source.
# B1: library; numbered along this chain (parent)
# chain: MEVVDPQQLGMFTEGELMSVGMDTFIHRIDSTEVIYQPRRKRAKLIGKYLMGDLLGEGSYGKVKEVLDSETLCRRAVKILKKKKLRRIPNGEANVKKEIQLLRRLRHKNVIQLVDVLYNEEKQKMYMVMEYCVCGMQEMLDSVPEKRFPVCQAHGYFCQLIDGLEYLHSQGIVHKDIKPGNLLLTTGGTLKISDLGVAEALHPFAADDTCRTSQGSPAFQPPEIANGLDTFSGFKVDIWSAGVTLYNITTGLYPFEGDNIYKLFENIGKGSYAIPGDCGPPLSDLLKGMLEYEPAKRFSIRQIRQHSWFRKKHPPAEAPVPIPPSPDTKDRWRSMTVVPYLEDLHGADEDEDLFDIEDDIIYTQDFTVPGQVPEEEASHNGQRRGLPKAVCMNGTEAAQLSTKSRAEGRAPNPARKACSASSKIRRLSACKQQ
# Variants of: B1
# Assay: STK11 functional score (HeLa growth suppression), rescaled enrichment; synonymous median = 1, nonsense median = 0 (normalised score)
# Settings: with HeLa; variant type: missense
# Procedure, shortened: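 The functional score takes the post/pre-selection log ratio, corrects it to wild type, rescales it to synonymous and nonsense medians, and merges it over codons and replicate transfections, with error from bootstrapping. Counts came from tiled gDNA amplicons sequenced on NextSeq (~2 million reads per tile). The libraries were POPCode codon-randomised, codon-optimised STK11 integrated by Bxb1 at an AAVS1 landing pad in HeLa, three regions with three transfections each.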
row,Variant,STK11 functional score
1,MEVVDPQQLGMFTEGELMSVGMDTFIHRIDSTEVIYQPRRKRAKLIGKYLMGDLLGEGSYGKVKEVLDSETLCRRAVKILKKKKLRRIPNGEANVKKEIQLLRRLRHKNVIQLVDVLYNEEKQKMYMVMEYCVCGMQEMLDSVPEKRFPVCQAHGYFCQLIDGLEYLHSQGIVHKDIKPGNLLLTTGGTLKISDLGVAEALHPFAADDTCRTSQGSPAFQPPEIANGLDTFSGFKVDIWSAGVTLYNITTGLYPFEGDNIYKLFENIGKGSYAIPGDCGPPLSDLLKGMLEYEPAKRFSIRQIRQHSWFRKKHPPAEAPVPIPPSPDTKDSWRSMTVVPYLEDLHGADEDEDLFDIEDDIIYTQDFTVPGQVPEEEASHNGQRRGLPKAVCMNGTEAAQLSTKSRAEGRAPNPARKACSASSKIRRLSACKQQ [R331S],1.32 ± 0.29
2,MEVVDPQQLGMFTEGELMSVGMDTFIHRIDSTEVIYQPRRKRAKLIGKYLMGDLLGEGSYGKVKEVLDSETLCRRAVKILKKKKLRRIPNGEANVKKEIQLLRRLRHKNVIQLVDVLYNEEKQKMYMVMEYCVCGMQEMLDSVPEKRFPVCQAHGYFCQLIDGLEYLHSQGIVHKDIKPGNLLLTTGGTLKISDLGVAEALHPFAADDTCRTSQGSPAFQPPEIANGLDTFSGFKVDIWSAGVTLYNITTGLYPFEGDNIYKLFENIGKGSYAIPGDCGPPLSDLLKGMLEYEPAKRFSIRQIRQHSWFRKKHPPAEAPVPIPPSPDTKDAWRSMTVVPYLEDLHGADEDEDLFDIEDDIIYTQDFTVPGQVPEEEASHNGQRRGLPKAVCMNGTEAAQLSTKSRAEGRAPNPARKACSASSKIRRLSACKQQ [R331A],0.000385 ± 0.16
3,MEVVDPQQLGMFTEGELMSVGMDTFIHRIDSTEVIYQPRRKRAKLIGKYLMGDLLGEGSYGKVKEVLDSETLCRRAVKILKKKKLRRIPNGEANVKKEIQLLRRLRHKNVIQLVDVLYNEEKQKMYMVMEYCVCGMQEMLDSVPEKRFPVCQAHGYFCQLIDGLEYLHSQGIVHKDIKPGNLLLTTGGTLKISDLGVAEALHPFAADDTCRTSQGSPAFQPPEIANGLDTFSGFKVDIWSAGVTLYNITTGLYPFEGDNIYKLFENIGKGSYAIPGDCGPPLSDLLKGMLEYEPAKRFSIRQIRQHSWFRKKHPPAEAPVPIPPSPDTKDDWRSMTVVPYLEDLHGADEDEDLFDIEDDIIYTQDFTVPGQVPEEEASHNGQRRGLPKAVCMNGTEAAQLSTKSRAEGRAPNPARKACSASSKIRRLSACKQQ [R331D],1.24 ± 0.36
4,MEVVDPQQLGMFTEGELMSVGMDTFIHRIDSTEVIYQPRRKRAKLIGKYLMGDLLGEGSYGKVKEVLDSETLCRRAVKILKKKKLRRIPNGEANVKKEIQLLRRLRHKNVIQLVDVLYNEEKQKMYMVMEYCVCGMQEMLDSVPEKRFPVCQAHGYFCQLIDGLEYLHSQGIVHKDIKPGNLLLTTGGTLKISDLGVAEALHPFAADDTCRTSQGSPAFQPPEIANGLDTFSGFKVDIWSAGVTLYNITTGLYPFEGDNIYKLFENIGKGSYAIPGDCGPPLSDLLKGMLEYEPAKRFSIRQIRQHSWFRKKHPPAEAPVPIPPSPDTKDGWRSMTVVPYLEDLHGADEDEDLFDIEDDIIYTQDFTVPGQVPEEEASHNGQRRGLPKAVCMNGTEAAQLSTKSRAEGRAPNPARKACSASSKIRRLSACKQQ [R331G],1.41 ± 0.16
5,MEVVDPQQLGMFTEGELMSVGMDTFIHRIDSTEVIYQPRRKRAKLIGKYLMGDLLGEGSYGKVKEVLDSETLCRRAVKILKKKKLRRIPNGEANVKKEIQLLRRLRHKNVIQLVDVLYNEEKQKMYMVMEYCVCGMQEMLDSVPEKRFPVCQAHGYFCQLIDGLEYLHSQGIVHKDIKPGNLLLTTGGTLKISDLGVAEALHPFAADDTCRTSQGSPAFQPPEIANGLDTFSGFKVDIWSAGVTLYNITTGLYPFEGDNIYKLFENIGKGSYAIPGDCGPPLSDLLKGMLEYEPAKRFSIRQIRQHSWFRKKHPPAEAPVPIPPSPDTKDCWRSMTVVPYLEDLHGADEDEDLFDIEDDIIYTQDFTVPGQVPEEEASHNGQRRGLPKAVCMNGTEAAQLSTKSRAEGRAPNPARKACSASSKIRRLSACKQQ [R331C],1.38 ± 0.24
6,MEVVDPQQLGMFTEGELMSVGMDTFIHRIDSTEVIYQPRRKRAKLIGKYLMGDLLGEGSYGKVKEVLDSETLCRRAVKILKKKKLRRIPNGEANVKKEIQLLRRLRHKNVIQLVDVLYNEEKQKMYMVMEYCVCGMQEMLDSVPEKRFPVCQAHGYFCQLIDGLEYLHSQGIVHKDIKPGNLLLTTGGTLKISDLGVAEALHPFAADDTCRTSQGSPAFQPPEIANGLDTFSGFKVDIWSAGVTLYNITTGLYPFEGDNIYKLFENIGKGSYAIPGDCGPPLSDLLKGMLEYEPAKRFSIRQIRQHSWFRKKHPPAEAPVPIPPSPDTKDPWRSMTVVPYLEDLHGADEDEDLFDIEDDIIYTQDFTVPGQVPEEEASHNGQRRGLPKAVCMNGTEAAQLSTKSRAEGRAPNPARKACSASSKIRRLSACKQQ [R331P],1.54 ± 0.22
7,MEVVDPQQLGMFTEGELMSVGMDTFIHRIDSTEVIYQPRRKRAKLIGKYLMGDLLGEGSYGKVKEVLDSETLCRRAVKILKKKKLRRIPNGEANVKKEIQLLRRLRHKNVIQLVDVLYNEEKQKMYMVMEYCVCGMQEMLDSVPEKRFPVCQAHGYFCQLIDGLEYLHSQGIVHKDIKPGNLLLTTGGTLKISDLGVAEALHPFAADDTCRTSQGSPAFQPPEIANGLDTFSGFKVDIWSAGVTLYNITTGLYPFEGDNIYKLFENIGKGSYAIPGDCGPPLSDLLKGMLEYEPAKRFSIRQIRQHSWFRKKHPPAEAPVPIPPSPDTKDHWRSMTVVPYLEDLHGADEDEDLFDIEDDIIYTQDFTVPGQVPEEEASHNGQRRGLPKAVCMNGTEAAQLSTKSRAEGRAPNPARKACSASSKIRRLSACKQQ [R331H],-0.127 ± 0.098
8,MEVVDPQQLGMFTEGELMSVGMDTFIHRIDSTEVIYQPRRKRAKLIGKYLMGDLLGEGSYGKVKEVLDSETLCRRAVKILKKKKLRRIPNGEANVKKEIQLLRRLRHKNVIQLVDVLYNEEKQKMYMVMEYCVCGMQEMLDSVPEKRFPVCQAHGYFCQLIDGLEYLHSQGIVHKDIKPGNLLLTTGGTLKISDLGVAEALHPFAADDTCRTSQGSPAFQPPEIANGLDTFSGFKVDIWSAGVTLYNITTGLYPFEGDNIYKLFENIGKGSYAIPGDCGPPLSDLLKGMLEYEPAKRFSIRQIRQHSWFRKKHPPAEAPVPIPPSPDTKDLWRSMTVVPYLEDLHGADEDEDLFDIEDDIIYTQDFTVPGQVPEEEASHNGQRRGLPKAVCMNGTEAAQLSTKSRAEGRAPNPARKACSASSKIRRLSACKQQ [R331L],1.2 ± 0.16
9,MEVVDPQQLGMFTEGELMSVGMDTFIHRIDSTEVIYQPRRKRAKLIGKYLMGDLLGEGSYGKVKEVLDSETLCRRAVKILKKKKLRRIPNGEANVKKEIQLLRRLRHKNVIQLVDVLYNEEKQKMYMVMEYCVCGMQEMLDSVPEKRFPVCQAHGYFCQLIDGLEYLHSQGIVHKDIKPGNLLLTTGGTLKISDLGVAEALHPFAADDTCRTSQGSPAFQPPEIANGLDTFSGFKVDIWSAGVTLYNITTGLYPFEGDNIYKLFENIGKGSYAIPGDCGPPLSDLLKGMLEYEPAKRFSIRQIRQHSWFRKKHPPAEAPVPIPPSPDTKDEWRSMTVVPYLEDLHGADEDEDLFDIEDDIIYTQDFTVPGQVPEEEASHNGQRRGLPKAVCMNGTEAAQLSTKSRAEGRAPNPARKACSASSKIRRLSACKQQ [R331E],1.12 ± 0.55
10,MEVVDPQQLGMFTEGELMSVGMDTFIHRIDSTEVIYQPRRKRAKLIGKYLMGDLLGEGSYGKVKEVLDSETLCRRAVKILKKKKLRRIPNGEANVKKEIQLLRRLRHKNVIQLVDVLYNEEKQKMYMVMEYCVCGMQEMLDSVPEKRFPVCQAHGYFCQLIDGLEYLHSQGIVHKDIKPGNLLLTTGGTLKISDLGVAEALHPFAADDTCRTSQGSPAFQPPEIANGLDTFSGFKVDIWSAGVTLYNITTGLYPFEGDNIYKLFENIGKGSYAIPGDCGPPLSDLLKGMLEYEPAKRFSIRQIRQHSWFRKKHPPAEAPVPIPPSPDTKDIWRSMTVVPYLEDLHGADEDEDLFDIEDDIIYTQDFTVPGQVPEEEASHNGQRRGLPKAVCMNGTEAAQLSTKSRAEGRAPNPARKACSASSKIRRLSACKQQ [R331I],1.16 ± 0.2
11,MEVVDPQQLGMFTEGELMSVGMDTFIHRIDSTEVIYQPRRKRAKLIGKYLMGDLLGEGSYGKVKEVLDSETLCRRAVKILKKKKLRRIPNGEANVKKEIQLLRRLRHKNVIQLVDVLYNEEKQKMYMVMEYCVCGMQEMLDSVPEKRFPVCQAHGYFCQLIDGLEYLHSQGIVHKDIKPGNLLLTTGGTLKISDLGVAEALHPFAADDTCRTSQGSPAFQPPEIANGLDTFSGFKVDIWSAGVTLYNITTGLYPFEGDNIYKLFENIGKGSYAIPGDCGPPLSDLLKGMLEYEPAKRFSIRQIRQHSWFRKKHPPAEAPVPIPPSPDTKDNWRSMTVVPYLEDLHGADEDEDLFDIEDDIIYTQDFTVPGQVPEEEASHNGQRRGLPKAVCMNGTEAAQLSTKSRAEGRAPNPARKACSASSKIRRLSACKQQ [R331N],1.35 ± 0.21
12,MEVVDPQQLGMFTEGELMSVGMDTFIHRIDSTEVIYQPRRKRAKLIGKYLMGDLLGEGSYGKVKEVLDSETLCRRAVKILKKKKLRRIPNGEANVKKEIQLLRRLRHKNVIQLVDVLYNEEKQKMYMVMEYCVCGMQEMLDSVPEKRFPVCQAHGYFCQLIDGLEYLHSQGIVHKDIKPGNLLLTTGGTLKISDLGVAEALHPFAADDTCRTSQGSPAFQPPEIANGLDTFSGFKVDIWSAGVTLYNITTGLYPFEGDNIYKLFENIGKGSYAIPGDCGPPLSDLLKGMLEYEPAKRFSIRQIRQHSWFRKKHPPAEAPVPIPPSPDTKVRWRSMTVVPYLEDLHGADEDEDLFDIEDDIIYTQDFTVPGQVPEEEASHNGQRRGLPKAVCMNGTEAAQLSTKSRAEGRAPNPARKACSASSKIRRLSACKQQ [D330V],1.46 ± 0.3
13,MEVVDPQQLGMFTEGELMSVGMDTFIHRIDSTEVIYQPRRKRAKLIGKYLMGDLLGEGSYGKVKEVLDSETLCRRAVKILKKKKLRRIPNGEANVKKEIQLLRRLRHKNVIQLVDVLYNEEKQKMYMVMEYCVCGMQEMLDSVPEKRFPVCQAHGYFCQLIDGLEYLHSQGIVHKDIKPGNLLLTTGGTLKISDLGVAEALHPFAADDTCRTSQGSPAFQPPEIANGLDTFSGFKVDIWSAGVTLYNITTGLYPFEGDNIYKLFENIGKGSYAIPGDCGPPLSDLLKGMLEYEPAKRFSIRQIRQHSWFRKKHPPAEAPVPIPPSPDTKTRWRSMTVVPYLEDLHGADEDEDLFDIEDDIIYTQDFTVPGQVPEEEASHNGQRRGLPKAVCMNGTEAAQLSTKSRAEGRAPNPARKACSASSKIRRLSACKQQ [D330T],1.59 ± 0.27
14,MEVVDPQQLGMFTEGELMSVGMDTFIHRIDSTEVIYQPRRKRAKLIGKYLMGDLLGEGSYGKVKEVLDSETLCRRAVKILKKKKLRRIPNGEANVKKEIQLLRRLRHKNVIQLVDVLYNEEKQKMYMVMEYCVCGMQEMLDSVPEKRFPVCQAHGYFCQLIDGLEYLHSQGIVHKDIKPGNLLLTTGGTLKISDLGVAEALHPFAADDTCRTSQGSPAFQPPEIANGLDTFSGFKVDIWSAGVTLYNITTGLYPFEGDNIYKLFENIGKGSYAIPGDCGPPLSDLLKGMLEYEPAKRFSIRQIRQHSWFRKKHPPAEAPVPIPPSPDTKSRWRSMTVVPYLEDLHGADEDEDLFDIEDDIIYTQDFTVPGQVPEEEASHNGQRRGLPKAVCMNGTEAAQLSTKSRAEGRAPNPARKACSASSKIRRLSACKQQ [D330S],1.47 ± 0.28
